In paper PMC3578790, “Tight Interconnection and Multi-Level Control of Arabidopsis MYB44 in MAPK Cascade Signalling”:

Experiments:
[1] = biological target: MYB44 S145A (Arabidopsis thaliana? (Arabidopsis, …, UniProt Q9FDW1 1-305, S145A)); assay: EMSA; no discernible difference from wild type; 10 mM Tris pH 8.0, 5 mM MgCl2, 100 mM KCl, 0.02% Triton X-100, 0.1 mg/ml BSA, 0.25% Tween, 2.5 mM DTT, 3 ng/ul poly(dIdC); 30 min room temperature; 5% PAGE in 0.5x TBE or TAE (TAE main) at 4 C; details: protein: recombinant; label: 5' Dy782 (Methods; called IRDye in Results); (only one strand printed)
Chain of MYB44 S145A (Arabidopsis thaliana? (Q9FDW1 whole entry S145A): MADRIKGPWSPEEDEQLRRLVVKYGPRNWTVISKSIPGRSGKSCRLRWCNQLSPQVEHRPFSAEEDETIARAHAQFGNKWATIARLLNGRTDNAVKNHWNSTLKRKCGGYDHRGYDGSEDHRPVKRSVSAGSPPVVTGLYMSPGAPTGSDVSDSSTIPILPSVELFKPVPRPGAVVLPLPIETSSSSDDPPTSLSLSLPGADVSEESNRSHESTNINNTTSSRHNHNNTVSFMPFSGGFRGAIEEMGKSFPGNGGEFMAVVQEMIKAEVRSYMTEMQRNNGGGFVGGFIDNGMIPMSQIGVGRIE

[2] = biological target: MYB44 S145D (Arabidopsis thaliana? (Arabidopsis, …, UniProt Q9FDW1 1-305, S145D)); assay: as above; details: protein: recombinant; label: 5' Dy782 (Methods; called IRDye in Results); (only one strand printed)
Chain of MYB44 S145D (Arabidopsis thaliana? (Q9FDW1 whole entry S145D): as the sequence (Q9FDW1 whole entry S145A) above, with A145D counted along it

B1: MBSII (dsDNA)
DNA 1: AGCTTCAAAAGTTAGTTACG
DNA 2: CGTAACTAACTTTTGAAGCT
binding result [1]: binds
binding result [2]: binds
